Test [1] concerns the target DIP-α (Dpr Interacting Protein alpha), extracellular region (Drosophila melanogaster) (UniProt Q9W4R3). Kind of test: SPR; Biacore T100, CM4 chip; DIPs and DIP mutants immobilised by amine coupling, Dprs as analytes; 25 °C; 10 mM Tris-HCl pH 7.2, 150 mM NaCl, 1 mM EDTA, 1 mg/mL BSA, 0.01% Tween-20; duplicate responses fit globally to a 1:1 model; Rmax fixed for KDs > 100 μM, lower limit listed for KDs > 300 μM.

For test [2], the target named is DIP-α A11T {A82T}, extracellular region (Drosophila melanogaster) (UniProt Q9W4R3). The test is described as above.
Test [3] addresses DIP-α A7K {A78K}, extracellular region (Drosophila melanogaster) (UniProt Q9W4R3). The description is as above.
Test [4] concerns the target DIP-α G4A {G74A}, extracellular region (Drosophila melanogaster) (UniProt Q9W4R3). Described as above.
The target of test [5] is DIP-α G4L {G74L}, extracellular region (Drosophila melanogaster) (UniProt Q9W4R3). The test is described as above.
The target of test [6] is DIP-α I16A {I91A}, extracellular region (Drosophila melanogaster) (UniProt Q9W4R3). The test is described as above.
Test [7] addresses DIP-α K10Q D29S {K81Q D129S}, extracellular region (Drosophila melanogaster) (UniProt Q9W4R3). The description is as above.
Test [8] deals with DIP-α K10Q G4S {K81Q G74S}, extracellular region (Drosophila melanogaster) (UniProt Q9W4R3). Described as above.
Test [9] concerns the target DIP-α K10Q S32D {K81Q S133D}, extracellular region (Drosophila melanogaster) (UniProt Q9W4R3). The description is as above.
The target in test [10] is DIP-α K10Q {K81Q}, extracellular region (Drosophila melanogaster) (UniProt Q9W4R3). Described as above.
Test [11] deals with DIP-α N19D {N94D}, extracellular region (Drosophila melanogaster) (UniProt Q9W4R3). The test is described as above.
Test [12] addresses DIP-α (Dpr Interacting Protein alpha), extracellular region (Drosophila melanogaster) (UniProt Q9W4R3). The description is as above. This is another data set of the same source.
Test [13] has as its target DIP-β (isoformG), extracellular region (Drosophila melanogaster). Described as above.
The target of test [14] is DIP-γ (Drosophila melanogaster). Kind of test: SPR; Biacore T100, CM4 chip; DIPs and DIP mutants immobilised by amine coupling (760-980 RU), Dprs and Dpr mutants as analytes (three-fold dilution series, up to 81 μM, in some cases up to 27 or 9 μM); 25 °C; 10 mM Tris-HCl pH 7.2, 150 mM NaCl, 1 mM EDTA, 1 mg/mL BSA, 0.01% Tween-20; equilibrium fit, 1:1 model; for KDs > 300 μM a lower limit is listed. Background: SPR reads the build-up and loss of mass on a sensor chip optically.

Test [15] addresses DIP-γ mutant at position 9 (Drosophila melanogaster). Described as above.
For test [16], the target named is DIP-γ (Dpr Interacting Protein gamma), extracellular region (Drosophila melanogaster) (UniProt Q9VAR6). Kind of test: SPR; Biacore T100, CM4 chip; DIPs and DIP mutants immobilised by amine coupling, Dprs as analytes; 25 °C; 10 mM Tris-HCl pH 7.2, 150 mM NaCl, 1 mM EDTA, 1 mg/mL BSA, 0.01% Tween-20; duplicate responses fit globally to a 1:1 model; Rmax fixed for KDs > 100 μM, lower limit listed for KDs > 300 μM.
DIP-γ (Dpr Interacting Protein gamma), extracellular region (Drosophila melanogaster), sequence (Q9VAR6 entry or part of it): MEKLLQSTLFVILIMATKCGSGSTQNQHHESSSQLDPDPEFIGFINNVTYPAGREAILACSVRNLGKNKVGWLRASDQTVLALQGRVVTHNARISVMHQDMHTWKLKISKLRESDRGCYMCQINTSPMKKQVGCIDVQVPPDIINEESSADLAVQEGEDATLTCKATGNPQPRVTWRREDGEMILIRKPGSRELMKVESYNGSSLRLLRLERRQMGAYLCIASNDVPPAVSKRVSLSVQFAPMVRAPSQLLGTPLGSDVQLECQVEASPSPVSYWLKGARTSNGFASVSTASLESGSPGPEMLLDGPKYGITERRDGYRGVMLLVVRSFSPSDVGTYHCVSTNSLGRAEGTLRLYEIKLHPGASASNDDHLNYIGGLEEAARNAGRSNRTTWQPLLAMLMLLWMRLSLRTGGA

Test [17] addresses DIP-γ R15N {R86N}, extracellular region (Drosophila melanogaster) (UniProt Q9VAR6). The description is as above.
Test [18] concerns the target DIP-γ R22S {R112S}, extracellular region (Drosophila melanogaster) (UniProt Q9VAR6). The test is described as above.
Test [19] deals with DIP-γ (Dpr Interacting Protein gamma), extracellular region (Drosophila melanogaster) (UniProt Q9VAR6). The test is described as above. This is another data set of the same source.

Where “and” joins values, the source holds several entries; their conditions need not be identical. Equal values may be shown once. Read-outs that look alike come from different tables or passages of the source.

In general, Kd refers to the free concentration of one partner at which half of the binding sites on the other are occupied at equilibrium, for simple one-to-one binding. Low readings indicate a tighter complex, high ones a looser complex.

DIP-γ R22S {R112S}, extracellular region (Drosophila melanogaster), sequence (Q9VAR6 entry or part of it R22S {R112S} | R22S R112S): as the sequence (Q9VAR6 entry or part of it) above, with R112S counted along it
DIP-γ R15N {R86N}, extracellular region (Drosophila melanogaster), sequence (Q9VAR6 entry or part of it R15N {R86N} | R15N R86N): as the sequence (Q9VAR6 entry or part of it) above, with R86N counted along it

Consider “Dpr10 (Defective proboscis extension response 10), extracellular region (from UniProt M9PF17 1-362) (domain or fragment)”, for which the Kd is 1.4 µM in test [1]; 18.1 µM in test [2]; 0.28 µM in [3]; 0.9 µM in test [4]; 45.8 µM in test [5]; 56.9 µM in [6]. The Kd stood at 41.6 µM in test [7]; 68 µM in test [8]; 39.1 µM in [9]; 31.8 µM in [10]; 1.4 µM in test [11]; 1.3 µM in test [12]. Also, the Kd in [13] amounted to 33.3 µM.

For the substance Dpr11 (domain or fragment), the Kd amounted to 7.9 µM in test [14] and 37.2 µM in test [15].

Consider “Dpr11 (Defective proboscis extension response 11), extracellular region (from UniProt Q8MRE6 1-360) (domain or fragment)”, for which the Kd in [16] was 8.54 µM and 7.12 µM; in [17], 13.1 µM; in [18], 9.5 µM; in [12], > 500 µM; in test [13] it was 270 µM; in test [19], 7.15 µM.

Source of the values: publication PMC7195491.
